Patent US20240317834A1, “COMPOSITIONS AND METHODS FOR NEUROLOGICAL DISEASES” (CODA BIOTHERAPEUTICS, INC., priority 2020, published 2024)
Residue numbers refer to the chain shown, from its start. In names and notes the source's numbering stands.

Legend:
Lenti-X 293T cells = test: YFP fluorescence quenching anion reporter plate reader assay of engineered receptors stimulated with acetylcholine or a non-native ligand; format: cell-based; details: for percent quench of YFP fluorescence, 30 nM TC-6683: TC-6683 30 nM; for percent quench of YFP fluorescence, 300 nM TC-6683: TC-6683 300 nM; for percent quench of YFP fluorescence, 3 uM TC-6683: TC-6683 3 uM; for percent quench of YFP fluorescence, 30 uM TC-6683: TC-6683 30 uM; for percent quench of YFP fluorescence, 100 uM TC-6683: TC-6683 100 uM; for percent quench of YFP fluorescence, 100 uM ach: acetylcholine 100 uM; for percent quench of YFP fluorescence, 300 uM ach: acetylcholine 300 uM; for percent quench of YFP fluorescence, 500 uM ach: acetylcholine 500 uM; for percent quench of YFP fluorescence, 1 mM ach: acetylcholine 1 mM; for percent quench of YFP fluorescence, 3 mM ach: acetylcholine 3 mM; for percent quench of YFP fluorescence, 10 mM ach: acetylcholine 10 mM
Procedure, shortened: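 Lenti-X 293T cells carrying a YFP anion reporter were transiently transfected with channel DNA and assayed the next day in HEPES-buffered ECS at pH 7.2. Ligand (acetylcholine or non-native ligand) was added in NaI-substituted ECS. Percent quench was the mean of the last 10 s relative to the 15 s pre-addition baseline.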

rat DRG neurons = test: Rheobase shift and evoked action potentials in rat DRG neurons (current clamp); format: cell-based; details: for Rheobase Shift; Rat DRG Neurons, Baseline: no ligand
Method: Using whole cell manual patch clamp electrophysiology in HEK293 cells, rat DRG neurons and rat hippocampal neurons, the EC50 of the various engineered receptors disclosed herein to Ach and non-native ligands was measured using the Hill equation with peak current measurements from escalating doses of ligand. The rheobase shift was also measured in rat DRG neurons, which reflects the efficacy of the receptors. To calculate the rheobase, first, the amount of current that can produce an action potential was determined. Then the ligand was added, followed by a step wise increase in the current injected up to 700 pA.
For manual patch clamp experiments, Cells plated on coverslips were visualized at 10× and 40× on an inverted fluorescence microscope (Olympus). Recordings were made with an Axopatch 200B amplifier and Digidata 1550B (Molecular Devices) at RT using 3-6 MOhm glass patch electrodes (Sutter, BF150-86-10). Unless otherwise stated, recordings were made in extracellular solution (ECS) containing: 140 mM sodium chloride, 4 mM potassium chloride, 1 mM magnesium chloride, 2 mM calcium chloride, 10 mM HEPES, and 10 mM D-(+)-glucose (pH=7.3 with sodium hydroxide, osmolarity=305−315 mOsm). An 8-line reservoir (AutoMate Scientific) in combination with an 8-channel zero-dead-volume perfusion pencil (AutoMate Scientific) was used for perfusion. Data was acquired using pClamp software (Molecular Devices). Traces were either analyzed in Clampfit (Molecular Devices) or using custom Python code. Plotting and statistics were performed in GraphPad Prism.
DRG rheobase experiments were performed in current clamp mode using a potassium-based internal solution containing: 100 mM potassium D-gluconate, 28 mM potassium chloride, 1 mM magnesium chloride hexahydrate, 5 mM magnesium ATP, 10 mM HEPES, and 0.5 mM EGTA (pH=7.2 with potassium hydroxide, osmolarity=290-295 mOsm, calculated liquid junction potential=−13.5 mV). To measure DRG input resistance and rheobase, 500 ms current steps (−200 pA to 700 pA) were applied the membrane in the presence and absence of a compound. No holding current was applied to the membrane for cells included in the final datasets. Data were acquired at 10 kHz, with Bessel filter at 2 kHz and series resistance compensation at 100%. Rheobase was defined as the smallest depolarizing current injection required to cause an action potential to fire in the cell. In a subset of cells, the rheobase was ambiguous, since the action potential appeared to be graded in amplitude. In these cases, a […] of the trace clarified the rheobase. Input resistance was measured from the negative current injections, calculated as the difference in membrane potential at steady state divided by the current injection amplitude and then averaged across the four negative current steps for each recording. Resting membrane potential was measured from the first 100 ms of each sweep, averaged for each recording, and corrected for liquid junction potential. One-way ANOVA with multiple comparisons was used to test for significance of difference in rheobase and input resistance between baseline, drug, and wash conditions.

B1: CODA1048: engineered chimeric LGIC receptor, R101F, Y210F in SEQ ID NO: 33 (protein)
chain: MRCSPGGVWLALAASLLHVSLQGEFQRKLYKELVKNYNPLERPVANDSQPLTVYFSLSLLQIMDVDEKNQVLTTNIWLQMSWTDHYLQWNVSEYPGVKTVFFPDGQIWKPDILLYNSADERFDATFHTNVLVNSSGHCQYLPPGIFKSSCPMDLKNFPMDVQTCKLKFGSWSYGGWSLDLQMQEADISGYIPNGEWDLVGIPGKRSERFFECCKEPYPDVTFTVTMRRRMGYYLIQMYIPSLLIVILSWISFWINMDAAPARVGLGITTVLTMTTQSSGSRASLPKVSYVKAIDIWMAVCLLFVFSALLEYAAVNFVSRQHKELLRFRRKRRHHKSPMLNLFQEDEAGEGRFNFSAYGMGPACLQAKDGISVKGANNSNTTNPPPAPSKSPEEMRKLFIQRAKKIDKISRIGFPMAFLIFNMFYWIIYKIVRREDVHNQ
modifications: synthetic sequence of chimeric LGIC
Lenti-X 293T cells; 1 nM CNL001, first column
  YFP fluorescence quenching using CNL001: 9.114%
Lenti-X 293T cells; 1 nM CNL001, second column
  YFP fluorescence quenching using CNL001: 0.845%
Lenti-X 293T cells; 1 nM brd
  YFP fluorescence quenching using TC-5619/Bradanicline: −2.084%
Lenti-X 293T cells; 3 nM brd
  YFP fluorescence quenching using TC-5619/Bradanicline: −9.098%
Lenti-X 293T cells; 3 nM var, first column
  YFP fluorescence quenching using Varenicline: −17.119
Lenti-X 293T cells; 3 nM var, second column
  YFP fluorescence quenching using Varenicline: −13.234
Lenti-X 293T cells; 10 nM CNL001, first column
  YFP fluorescence quenching using CNL001: 28.944%
Lenti-X 293T cells; 10 nM CNL001, second column
  YFP fluorescence quenching using CNL001: 53.629%
Lenti-X 293T cells; 10 nM brd
  YFP fluorescence quenching using TC-5619/Bradanicline: −2.587%
Lenti-X 293T cells; 30 nM brd
  YFP fluorescence quenching using TC-5619/Bradanicline: 55.818%
Lenti-X 293T cells; 30 nM var, first column
  YFP fluorescence quenching using Varenicline: −7.747
Lenti-X 293T cells; 30 nM var, second column
  YFP fluorescence quenching using Varenicline: 4.193
Lenti-X 293T cells; 50 nM CNL001, first column
  YFP fluorescence quenching using CNL001: 68.581%
Lenti-X 293T cells; 50 nM CNL001, second column
  YFP fluorescence quenching using CNL001: 74.379%
Lenti-X 293T cells; 50 nM abt
  YFP fluorescence quenching using ABT-126: −23.28%
Lenti-X 293T cells; 100 nM CNL001, first column
  YFP fluorescence quenching using CNL001: 80.541%
Lenti-X 293T cells; 100 nM CNL001, second column
  YFP fluorescence quenching using CNL001: 80.774%
Lenti-X 293T cells; 100 nM abt
  YFP fluorescence quenching using ABT-126: −21.78%
Lenti-X 293T cells; 100 nM brd
  YFP fluorescence quenching using TC-5619/Bradanicline: 76.957%
Lenti-X 293T cells; 300 nM abt
  YFP fluorescence quenching using ABT-126: −19.35%
Lenti-X 293T cells; 300 nM brd
  YFP fluorescence quenching using TC-5619/Bradanicline: 74.268%
Lenti-X 293T cells; 300 nM var, first column
  YFP fluorescence quenching using Varenicline: 4.149
Lenti-X 293T cells; 300 nM var, second column
  YFP fluorescence quenching using Varenicline: 1.512
Lenti-X 293T cells; 500 nM var, first column
  YFP fluorescence quenching using Varenicline: −1.572
Lenti-X 293T cells; 500 nM var, second column
  YFP fluorescence quenching using Varenicline: 3.71
Lenti-X 293T cells; 1 uM CNL001, first column
  YFP fluorescence quenching using CNL001: 83.143%
Lenti-X 293T cells; 1 uM CNL001, second column
  YFP fluorescence quenching using CNL001: 81.751%
Lenti-X 293T cells; 1 uM abt
  YFP fluorescence quenching using ABT-126: −16.33%
Lenti-X 293T cells; 1 uM var, first column
  YFP fluorescence quenching using Varenicline: 8.414
Lenti-X 293T cells; 1 uM var, second column
  YFP fluorescence quenching using Varenicline: 4.091
Lenti-X 293T cells
  percent quench of YFP fluorescence, 30 nM TC-6683: −29.055%
  percent quench of YFP fluorescence, 300 nM TC-6683: −33.935%
  percent quench of YFP fluorescence, 3 uM TC-6683: −24.613%
  percent quench of YFP fluorescence, 30 uM TC-6683: −21.752%
  percent quench of YFP fluorescence, 100 uM TC-6683: −22.815%
  percent quench of YFP fluorescence, 100 uM ach: −17.31%
  percent quench of YFP fluorescence, 300 uM ach: −13.7%
  percent quench of YFP fluorescence, 500 uM ach: −10.1%
  percent quench of YFP fluorescence, 1 mM ach: 5.53%
  percent quench of YFP fluorescence, 3 mM ach: 68.61%
  percent quench of YFP fluorescence, 10 mM ach: 78.22%
Rat DRG neurons
  Rheobase Shift; Rat DRG Neurons, +TC-5619 @ EC90: 590 ± 46 pA
  Rheobase Shift; Rat DRG Neurons, Baseline: 120 ± 19 pA

B2: CODA1054: engineered chimeric LGIC receptor, R101M, L131F in SEQ ID NO: 33 (protein)
chain: B1 chain with F101M, L131F, F210Y
modifications: synthetic sequence of chimeric LGIC
Lenti-X 293T cells; 1 nM CNL001, first column
  YFP fluorescence quenching using CNL001: 21.932%
Lenti-X 293T cells; 1 nM CNL001, second column
  YFP fluorescence quenching using CNL001: 39.689%
Lenti-X 293T cells; 1 nM brd
  YFP fluorescence quenching using TC-5619/Bradanicline: 6.609%
Lenti-X 293T cells; 3 nM brd
  YFP fluorescence quenching using TC-5619/Bradanicline: −7.635%
Lenti-X 293T cells; 3 nM var, first column
  YFP fluorescence quenching using Varenicline: 34.923
Lenti-X 293T cells; 3 nM var, second column
  YFP fluorescence quenching using Varenicline: 28.944
Lenti-X 293T cells; 10 nM CNL001, first column
  YFP fluorescence quenching using CNL001: 54.192%
Lenti-X 293T cells; 10 nM CNL001, second column
  YFP fluorescence quenching using CNL001: 64.111%
Lenti-X 293T cells; 10 nM brd
  YFP fluorescence quenching using TC-5619/Bradanicline: 4.459%
Lenti-X 293T cells; 30 nM brd
  YFP fluorescence quenching using TC-5619/Bradanicline: 69.782%
Lenti-X 293T cells; 30 nM var, first column
  YFP fluorescence quenching using Varenicline: 42.214
Lenti-X 293T cells; 30 nM var, second column
  YFP fluorescence quenching using Varenicline: 43.015
Lenti-X 293T cells; 50 nM CNL001, first column
  YFP fluorescence quenching using CNL001: 71.409%
Lenti-X 293T cells; 50 nM CNL001, second column
  YFP fluorescence quenching using CNL001: 70.989%
Lenti-X 293T cells; 50 nM abt
  YFP fluorescence quenching using ABT-126: −19.54%
Lenti-X 293T cells; 100 nM CNL001, first column
  YFP fluorescence quenching using CNL001: 74.148%
Lenti-X 293T cells; 100 nM CNL001, second column
  YFP fluorescence quenching using CNL001: 71.722%
Lenti-X 293T cells; 100 nM abt
  YFP fluorescence quenching using ABT-126: −18.28%
Lenti-X 293T cells; 100 nM brd
  YFP fluorescence quenching using TC-5619/Bradanicline: 77.633%
Lenti-X 293T cells; 300 nM abt
  YFP fluorescence quenching using ABT-126: −16.87%
Lenti-X 293T cells; 300 nM brd
  YFP fluorescence quenching using TC-5619/Bradanicline: 72.933%
Lenti-X 293T cells; 300 nM var, first column
  YFP fluorescence quenching using Varenicline: 47.059
Lenti-X 293T cells; 300 nM var, second column
  YFP fluorescence quenching using Varenicline: 52.768
Lenti-X 293T cells; 500 nM var, first column
  YFP fluorescence quenching using Varenicline: 59.542
Lenti-X 293T cells; 500 nM var, second column
  YFP fluorescence quenching using Varenicline: 62.641
Lenti-X 293T cells; 1 uM CNL001, first column
  YFP fluorescence quenching using CNL001: 71.378%
Lenti-X 293T cells; 1 uM CNL001, second column
  YFP fluorescence quenching using CNL001: 71.411%
Lenti-X 293T cells; 1 uM abt
  YFP fluorescence quenching using ABT-126: −11.77%
Lenti-X 293T cells; 1 uM var, first column
  YFP fluorescence quenching using Varenicline: 71.449
Lenti-X 293T cells; 1 uM var, second column
  YFP fluorescence quenching using Varenicline: 69.145
Lenti-X 293T cells
  percent quench of YFP fluorescence, 30 nM TC-6683: −22.996%
  percent quench of YFP fluorescence, 300 nM TC-6683: −27.055%
  percent quench of YFP fluorescence, 3 uM TC-6683: −18.611%
  percent quench of YFP fluorescence, 30 uM TC-6683: −13.879%
  percent quench of YFP fluorescence, 100 uM TC-6683: −21.521%
  percent quench of YFP fluorescence, 100 uM ach: −10.34%
  percent quench of YFP fluorescence, 300 uM ach: −10.25%
  percent quench of YFP fluorescence, 500 uM ach: −11.46%
  percent quench of YFP fluorescence, 1 mM ach: 1.77%
  percent quench of YFP fluorescence, 3 mM ach: 36.81%
  percent quench of YFP fluorescence, 10 mM ach: 74.02%
Lenti-X 293T cells; acetylcholine 10 uM
  percent quench of YFP fluorescence, 10 uM ach: −3.98%
Rat DRG neurons
  Rheobase Shift; Rat DRG Neurons, +TC-5619 @ EC90: 673 ± 27 pA
  Rheobase Shift; Rat DRG Neurons, Baseline: 105 ± 13 pA
